Test results taken from publication PMC2962499 (The Journal of Biological Chemistry, 2010).

T1: SpRpn12 fragment (residues 1-250) (Schizosaccharomyces pombe, UniProt P50524 1-250)
T1 sequence (looked up): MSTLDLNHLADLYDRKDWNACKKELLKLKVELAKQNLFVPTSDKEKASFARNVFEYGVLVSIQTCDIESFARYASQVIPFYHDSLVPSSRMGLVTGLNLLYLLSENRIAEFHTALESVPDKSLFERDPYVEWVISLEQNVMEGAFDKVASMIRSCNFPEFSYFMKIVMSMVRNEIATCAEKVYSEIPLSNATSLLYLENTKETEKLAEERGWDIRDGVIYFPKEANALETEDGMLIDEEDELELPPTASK

B1: Schizosaccharomyces pombe Rpn10, full-length (residues 1-243) (natural protein)
chain: MVLEATMILIDNSEWMINGDYIPTRFEAQKDTVHMIFNQKINDNPENMCGLMTIGDNSPQVLSTLTRDYGKFLSAMHDLPVRGNAKFGDGIQIAQLALKHRENKIQRQRIVAFVGSPIVEDEKNLIRLAKRMKKNNVAIDIIHIGELQNESALQHFIDAANSSDSCHLVSIPPSPQLLSDLVNQSPIGQGVVASQNQFEYGVDPNLDVELALALELSMAEERARQEVAAQKSSEETEDKKMQE
B2: SpRpn10 VWA domain (residues 1-195) (domain or fragment, Schizosaccharomyces pombe, UniProt O94444 1-195, looked up)
chain: MVLEATMILIDNSEWMINGDYIPTRFEAQKDTVHMIFNQKINDNPENMCGLMTIGDNSPQVLSTLTRDYGKFLSAMHDLPVRGNAKFGDGIQIAQLALKHRENKIQRQRIVAFVGSPIVEDEKNLIRLAKRMKKNNVAIDIIHIGELQNESALQHFIDAANSSDSCHLVSIPPSPQLLSDLVNQSPIGQGVVASQ

Legend:
monoubiquitin (bovine) = monoubiquitin (bovine) (bovine, UniProt P0CG53 1-76); test: ITC
[1] = target: T1, SpRpn12 fragment (residues 1-250); test: NMR titration

Row | Kd (monoubiquitin (bovine)) [µM] | binding result [1] | Binder
1 | 139 |  | B1
2 |  | binds | B2
